Positions count from the first letter of the chain named. Where two headings read alike, the source gives them in different places.
Columns and labels:
[1] = molecular target: antibody tested in the epitope mapping of Example 5; test: HTRF competition
[2] = molecular target: antibody tested in the epitope mapping of Example 5; test: HTRF competition, test protein against biotinylated human IL-4Rα/Fc for cryptate labelled antibody
[3] = molecular target: antibody tested in the epitope mapping of Example 5; test: as above; remark: listed apart in the source
[4] = molecular target: antibody tested in the epitope mapping of Example 5; test: as above; remark: listed apart in the source

B1: MoLoop2HuIL-4Rα (receptor)
chain: MKVLQEPTCVSDYMSISTCEWKMNGPTNCSTELRLLYQLMFFEFSENLTCIPENNGGAGCVCHLLMDDVVSADNYTLDLWAGQQLLWKGSFKPSEHVKPRAPGNLTVHTNVSDTLLLTWSNPYPPDNYLYNHLTYAVNIWSENDPADFRIYNVTYLEPSLRIAASTLKSGISYRARVRAWAQCYNTTWSEWSPSTKWHNSYREPFDYKDDDDKAAHHHHHHHHHH
B1 showed a fold higher IC50 than human IL-4Rα [1] of 100 fold, an IC50 [2] of 23 nM and an IC50 [3] of 25 nM.

B2: EM23 (receptor)
chain: B1 chain with L48H
Work on B2 yielded an IC50 [3] of 56 nM.

B3: EM18 (receptor)
chain: B1 chain with M40V
B3 showed an IC50 [3] of 20 nM.

B4: MoD1HuD2IL-4Rα (receptor)
chain: IKVLGEPTCFSDYIRTSTCEWFLDSAVDCSSQLCLHYRLMFFEFSENLTCIPRNSASTVCVCHMEMNRPVQSDRYQMELWAEHRQLWQGSFSPSGHVKPRAPGNLTVHTNVSDTLLLTWSNPYPPDNYLYNHLTYAVNIWSENDPADFRIYNVTYLEPSLRIAASTLKSGISYRARVRAWAQCYNTTWSEWSPSTKWHNSYREPFDYKDDDDKAAHHHHHHHHHH
With B4 the % inhibition at the highest concentration (1000 nM) [2] was 34%.

B5: MoIL-4Rα (receptor)
chain: IKVLGEPTCFSDYIRTSTCEWFLDSAVDCSSQLCLHYRLMFFEFSENLTCIPRNSASTVCVCHMEMNRPVQSDRYQMELWAEHRQLWQGSFSPSGNVKPLAPDNLTLHTNVSDEWLLTWNNLYPSNNLLYKDLISMVNISREDNPAEFIVYNVTYKEPRLSFPINILMSGVYYTARVRVRSQILTGTWSEWSPSITWYNHFQLPLNPAFLYKVVGAADYKDDDDKAAHHHHHHHHHH
B5 was tested, and the % inhibition at the highest concentration (1000 nM) [2] was 45%.

B6: HuD1MoD2IL-4Rα (receptor)
chain: MKVLQEPTCVSDYMSISTCEWKMNGPTNCSTELRLLYQLVFLLSEAHTCIPENNGGAGCVCHLLMDDVVSADNYTLDLWAGQQLLWKGSFKPSENVKPLAPDNLTLHTNVSDEWLLTWNNLYPSNNLLYKDLISMVNISREDNPAEFIVYNVTYKEPRLSFPINILMSGVYYTARVRVRSQILTGTWSEWSPSITWYNHFQLPLDYKDDDDKAAHHHHHHHHHH
For B6, the IC50 [2] was 3.4 nM.

B7: AllMoLoopsHuIL-4Rα (receptor)
chain: MKVLQEPTCVSDYIRTSTCEWKMNGPTNCSTELRLLYQLMFFEFSENLTCIPENNGGAGCVCHLEMNRPVQSDRYTLDLWAGQQLLWKGSFKPSEHVKPRAPGNLTVHTNVSDTLLLTWNNLYPSNNYLYNHLTYAVNIWSENDPADFRIYNVTYLEPSLRIAASTLKSGISYRARVRAWSQILTGTWSEWSPSTKWHNSYREPFDYKDDDDKAAHHHHHHHHHH
Work on B7 yielded a % inhibition at the highest concentration (1000 nM) [2] of 41%.

B8: MoLoop3HuIL-4Rα (receptor)
chain: MKVLQEPTCVSDYMSISTCEWKMNGPTNCSTELRLLYQLVFLLSEAHTCIPENNGGAGCVCHLEMNRPVQSDRYTLDLWAGQQLLWKGSFKPSEHVKPRAPGNLTVHTNVSDTLLLTWSNPYPPDNYLYNHLTYAVNIWSENDPADFRIYNVTYLEPSLRIAASTLKSGISYRARVRAWAQCYNTTWSEWSPSTKWHNSYREPFDYKDDDDKAAHHHHHHHHHH
B8 gave a % inhibition at the highest concentration (1000 nM) [2] of 58% and a % inhibition at the highest concentration (1000 nM) [4] of 45%.

B9: EM01 (receptor)
chain: MKVLQEPTCVSDYMSISTCEWKMNGPTNCSTELRLLYQLVFLLSEAHTCIPENNGGAGCVCHLEMDDVVSADNYTLDLWAGQQLLWKGSFKPSEHVKPRAPGNLTVHTNVSDTLLLTWSNPYPPDNYLYNHLTYAVNIWSENDPADFRIYNVTYLEPSLRIAASTLKSGISYRARVRAWAQCYNTTWSEWSPSTKWHNSYREPFNPAFLYKVVGAADYKDDDDKAAHHHHHHHHHH
For B9, the IC50 [4] was 0.71 nM.

B10: EM05 (receptor)
chain: B9 chain with E64L, S70Q
With B10 the IC50 [4] was 1.65 nM.

B11: EM02 (receptor)
chain: B9 chain with E64L, D66N
For B11, the IC50 [4] was 2.25 nM.

B12: EM03 (receptor)
chain: B9 chain with E64L, D67R
Work on B12 yielded a % inhibition at the highest concentration (1000 nM) [4] of 29%.

B13: EM04 (receptor)
chain: B9 chain with E64L, V68P
In the case of B13, the fold higher IC50 than human IL-4Rα [1] is reported as 20 fold and the IC50 [4] is reported as 15 nM.

B14: EM06 (receptor)
chain: B9 chain with E64L, A71S
In the case of B14, the IC50 [4] is reported as 3.25 nM.

B15: EM07 (receptor)
chain: B9 chain with E64L, N73R
B15 gave an IC50 [4] of 1.41 nM.

Reference: patent publication US20180057596A1
